These results are taken from PMC9496542, “The Ni(II)-Binding Activity of the Intrinsically Disordered Region of Human NDRG1, a Protein Involved in Cancer Development” (Biomolecules, 2022).

Values joined by “and” are separate entries in the source; they are usually repeats but may differ in a detail not shown here. Equal values may be shown once.

Series [1] concerns the molecule itself. The series is described as follows: SDS-PAGE under nondenaturing conditions with Western blot; A549 cells untreated or treated with 1 mM NiSO4 for two days; total lysates and nuclear extracts; Western blot with anti-NDRG1.
Series [2] concerns the molecule itself. In words: SDS-PAGE under nondenaturing conditions with Western blot; HeLa cells untreated or treated with 1 mM NiSO4 for 24 h; lysed under nondenaturing conditions; lysates in native sample buffer; blot with an antibody against the N-terminal region of NDRG1.
Series [3] deals with the molecule itself. In words: SEC-MALS; SEC-MALS-QELS; hNDRG1 300 uL at 140 uM on Superdex 200 10/300 GL; 20 mM HEPES pH 7.5, 150 mM NaCl, 1 mM TCEP; room temperature, 0.5 mL/min; without or with Ni(II); SEC also run with 10 mM DTT; monomer, dimer and tetramer in equilibrium.

B1: endogenous hNDRG1 in A549 cells (natural protein)
chain: not shown
notes: human NDRG1, endogenous protein of the lung carcinoma-derived A549 cells, detected by Western blot with anti-NDRG1; source: endogenous, A549 lysate
On to B1, for which the “stoichiometry N” value in series [1] came out at 4.

B2: endogenous hNDRG1 in HeLa cells (natural protein)
chain: not shown
notes: human NDRG1, endogenous protein of HeLa cells, detected with an antibody against the N-terminal region of NDRG1; source: endogenous, HeLa lysate
Consider B2, for which, in series [2], the “stoichiometry N” value was 2 and 4.

B3: full-length human NDRG1 (N-terminal Strep-tagged, recombinant) (natural protein)
chain: not shown
notes: No cleavage of the tag is described for the full-length protein; also called hNDRG1; N-myc downstream-regulated gene 1 protein; source: E. coli BL21-CodonPlus (DE3) RiL, purified (StrepTrap HP, Superdex 200)
As to B3, in series [3], the “stoichiometry N” value is 4 and 2.
